Measurements taken from the DeepSol protein solubility set.

assay: soluble on expression in E. coli; label from the status in PepcDB or PDB records

Sequence | soluble on expression in E. coli
MSLNFVAMDFETANQHPASACSLALVLVRESKIIDRFYTVINPQMAFDAQQVKVHDITAEDVAGAPTMAEVWPKIQPLFQPGMLVAAHNARFDCNVMKQSLARYGIAEPHYLVLDSLKVSRELEPGLDNYQLNTVSDLLGVELWHHHNALSDSEACAGILLKEEEKRGSELLKKFVYQVEGHHHHHH | not soluble
MCTVVIDRRPGDPWPLLVAANRDELADRPWLPPARHWPSRPEVIAGLDELAGGTWMGLNDWGVVACVLNREGTLGPLAGRRSRGELVLDALDMADARDAAEALADIDPRAYRPFNLIVADNRDAFWIRHADAEGRAAVEVHPLAEGLTLMTAHDPDDPLDARARAYLPRFRAAPRPDPQLRDGWAPWTHLLGSRDHAVDDGPTAAMCFSLAGGFGTSSSSLIALPAMERIGVDPLYLFAPAPPDQTDYRPVLEHHHHHH | soluble
GSRRASVGSHEVEKSGLLNMTKIAQGGRKLRKNWGPSWVVLTGNSLVFYREPPPTAPSSGWGPAGSRPESSVDLRGAALAHGRHLSSRRNVLHIRTIPGHEFLLQSDHETELRAWHRALRTVIERLVRW | soluble
MKFLYFGDPHIRGTNPRNRKDNYKEALIAKLREIFALAKYKGVTAIIQPGDTFDRPEVTTSVLLEFAKVLKESPVPIYTTAGNHDIYGYNLATYERTSLRVLELIVPQLTVINDPGQAQMFHQDGNHVQLTFTPYSDQIDKAGYGYSPEIIEDYESTKIHIAHGMLLDHDPPFDRYTKVQDVKTEADLVLCGHDHTGFGIYERSDGKVFVNDGSLTRLSASEAEMRRQISVLLIDVKAPRVFDLERIPLQSAKPGEEVLDRSRIEAEKKRAYAMEEFASLIQTETGEDVLVDINTIVESIAKTQSINSDVVEIALTKIAEAKEGLRT | not soluble
MEPGLDGGYLLLGVDWAINDKGDTVYRPVGLPDPDKVQRDLASQCASMLNVALRPEMQLEQVGGKTLLVVYVPEADVTHKPIYKKATGLPGGAYRRIGSSDQRCVDEDLWVLRGLEHHHHHH | not soluble
MQAVNTTSGGAVGVDRKQYMFSMLSSQEVDQMYAQSYQKTLGEAKSAGVLDTSSADARRVKAIAQRLIPQTAAFRPDATGWNWEVNVVKSDELNANCGPGGKIIFYTGLIDKLKLTDDEIAAVMGHEIAHALREHGREAMSKAYGVQVASQIGALAGLGQESLQLANTGVDYLMTLPNSRANENEADLIGLELAARAGYNPEAAITLWQKMGRASGGASQPEFTSTHPSDSSRMANLQAAIPKVMPLYQQARRGKLEHHHHHH | soluble
MKSLSALEAEQWITIRSIFLIDLPFRSFSFSLPAEEKQDLQCNLQNLVNHNFSFLQVIHLQVSHINDADVLTGLNGRIGSFLLPSIATGTGTATGTAATTGASAITASSRSRRILGDEFEDHVIVPATCGSRAVVGKPQRIIDLETKVDTSNIPHRTVLFLFHTGTSKRGIENPQAVNLHLIPCYEHLLHRADKGLHHMLHIFHRKRTDRLDLTRQRLDRIKFRFPRLGFEHIHHRRFVITNLFFALIAHHRHCCHTEFVLKKRRTFSLSVGETKIRQCTGNFPDYDGLCRTMTG | not soluble
MDCYVGATTGALKGAILKENTFQNLNEIKSLDPKSDEITSMIWNDEQQTEILIARVNRDLQLLGIEENELVSILTVTGGTGPIKGLHKADEKIVTCVESGELQIWNDKSEILSEWKTGPGVAVMRGSTEKPEIVTGGMKNLLKTWNLETGQQTWSAKNVPPDMLGLEIPIMITDARFIPGQNTILEATKLHEMRLYDPRAQRRPVKKIPFMENPIMCTSLTYKTNQILAANSIGEMGLFDLRSKVHPMCKFKGQAGSIRSITAHPTLPLAASVGIDRFLRVHDLQSRKLIHKIYCKTRLNRVLLRDNLSILNDKKPASKKEINEDETEYGNMTKDGYRSENEDDEDDDDVIEEDDVWGVMEPVKRAKKSSDDDVEEIQITSETIAVPSKNSQKLKRKNVLEADEIKEEEGDSDEAEVKKTTKKVLKKKKRV | not soluble
MSLNANRPIINLDLDLLRTFVAVADLNTFAAAAAAVCRTQSAVSQQMQRLEQLVGKELFARHGRNKLLTEHGIQLLGYARKILRFNDEACSSLMFSNLQGVLTIGASDESADTILPFLLSRISSVYPKLALDVRVKRNAYMVDMVKSQEVDLVVTTNQPHSLDCLNLRTSPTHWYCAAEYVLQRGEPVPLVLLDDPSPFRDMVLETLNAAGIPWRLAYVASTLPAVRAAVKAGLGVTARPVEMMSPDLRVLGAADGLPPLPDTEYLLCRDPNSQNELAMVIFHAMESYQNEGHHHHHH | soluble
MAKFIQKRLFASYIIRKNYYEIIGVSASATRQEIRDAFLKKTKQLHPDQSRKSSKSDSRVGWATGSSETEQFMLVKEAYDVLRNEEKRKEYDLAFSREGGFLMEATHKTQEMSTQRRNIQRAEWSADVIPDAKRNSKKVVYSHFRNPEDEYLREKQKNRM | not soluble
MAHHHHHHMGTLEAQTQGPGSMTAASSSAPTLGIIRLEHAKGLDLPAYETAGSAGMDLRAAVAEDRQIVLLPGRRTLVPTGLILEIPQGYEVQIRPRSGLAFKNGITCLNTPGTIDSDYRGEVKVLLINLGDDDFRIERGMRIAQAVFAPVIQPKIEERAKISETARGAGGFGSTGTA | soluble
MMLEQLIQLKQDLIDGSKVEKPSLDDKQIDEMDILVSEALEFNKELKFKLFNKGFVENVTGRVHYINFEQQKLHVKDQNDNTVYINMNNIIRVIYND | not soluble
MSIQRFTPEFKAEAVRQVIERGYSVAEIAAGFGVSTHSLYKWVKAVTPDKSEKQASELLEAKSEILRLRAQMRRLEEERDILKKPSGSSHTAWRPLEHHHHHH | not soluble
MGSDKIHHHHHHMSREINAGGHHFLYGGISRGVHYWDNKDFSEQSLRLSFGHQNRSVTRSFGTVPFVGQNLLGGSRYNFAGGFNADFSRRLGERWRLTLNAGNMWKHYQEDRTAARYGSHMPLAGATLMYSAPKDRLLYGGADWPHDMTKEAEQASVRKGLRVGAVKTFDGGLGLRANLRYTRRTFDAPGTIVYRFPRKDHEYQANLSLRHDKISWKGFTPQLNFRYLKIGSNMKSFYTRKNTQIFMSVEKDFK | not soluble
MSLIYQIAKEFDFCYGHRVWSQELNPDFSLDPCLSCRHLHGHQGKVIVHLESRELQRGMVTDFAHLNWFKRFIDEVLDHRFIIDIDDPLFPTLLPHFADKSALVWMEEGYARVDFERIKGESSPILELYESFVVVRFVPTSESIASWLLELLRSRIQPLGVKVSSVEFLETPKSRARVYNEGHHHHHH | soluble
MSLSQEMIKKWLDEEGFLRMEVPDENARFHYVVNYPEDHVIDIIQPAGKDDMILIACATSVSPEHQAGIRALSMEKRTEFIWKVRFTLNRFGVDFQLDHPENVLNSYLVTDEIFFDGLSKDRLISSIKNVFRAKLQVMWMIQERFGEERPEHDSMYVEGHHHHHH | soluble
MGSDKIHHHHHHMDYLDIGQAADNKYYSSKRTLPLAIMKENAKEYQPLKINTIKTCSCKENNLNCLTAKEWIKRQIGVWEFYYEKRDIRDKTVHPATFPISLAKQVIELFSHEGELVVDPFVGSGTTLVAARDSNRNAVGFDLQEKYIKLCAERLSTQRIVGNAQQVAIEEDARNISNYFNEESISLIFTSPPYANLLNRERKNKSRRNRKNNQLGKVEQYSQDPRDLGTLDVESYTKEMGDIFEKVKPALRTKGHCVINVPDMWWENKRIAIHVYLINEMTKRGYELRNIIIWDKRNLVNQIGIFGWPSNYITMGVTFEYLLDFWKP | not soluble
MGSDKIHHHHHHVMARIHNRDWCLACTSSLKELPRHVYFRAYSLKGGTCVQGHEHVWWQFLFARNGLMQVQAGATTLTLPPDYGVWIPPGCVHTLWIGEEVELESLYIEPTAVAIQDQEPRVVMVDEFVRAFIHHGCTSIPVKYDEDGADGRKVKVLLDSLQSLPDAPFNLPFPTEPRLLEVCLTIQSAPHLAHTLDESAGLARMSSRTFTRHFLRATGLPYHTWRQRMRLLGSLEMLRSDITVTEVALTIGYSTPSAFTHAFKQLFGKSPSRFTRPEPK | not soluble
GPGSMRDHAPTSAASATALVNPSLPNSSVVDASLTGAQKKSGASSTRQRPPTPLPSTTPPRSEQHYRMTETEAWLSASFGNLATMGDSNGNSGGARRHGGPSPSAAFPLTFQEVPAAVVNHLLSRITLIQSEEQRHRDAVTVEGREVSGSPEMADGAPLPTRNECRAIGEFMLANDTLLGRRPREGIDASACAPSALRLVSMPLFGDHRLATYSPQGAAANRRRRRRSKNRRAAGGGGDDVGELPCLATGNAGLAEPQEARGNGAGATPSTTSHPYSPRTFFVATQSHDVRRRLAAVTPLLRLTTNPDALWIEQRGTAYHYGEEGAEARRPHIDMKGLGNCSSFSVAAAASSRGGRGSSEPGPPRSASFSHTPSFPHAATATTTVIAAAPQLSRADVAFMKHLGTAAEVPLPAKPSHHPHQQEQQQLQLRASPASDTGVSNRAPVDRKRRRQKGQNPLSMKKKQRREVFRAH | not soluble
MTAANLTEQQRLELEAAAFRTLVHHLQTRKDVQNIDLMNLAGFCRNCLSKWYKAAADDLGVEVSNDQAREEIYGMPYAEWKAKYQKEASPEQQAAFAKSQGNA | not soluble
MAQHVKKPEWLKIRLGGNEKFTETKSIVEGHCLHTICTSGKCPNMGECWSRGTATFMIGGDICTRACRFCNTLTGRPKPLNEAEPTHVALSIKLMGLNHAVVTSVDRDDLPDYGAAHWVKTIQEIRRINSGVTLEVLIPDFKGRMDLVDMIIEASPDVISHNLETVRRLTPSVRSVATYDTSLAVLRHIAQSGKMPAKTGMMLGLGETEEEILELMDDALAAGVSVITIGQYLQPSRKNLPVVEYITPEQFEHLRLVGIEKGFRTIESAPLVRSSYHAERHL | not soluble
MNQLNGQQLNDIILVLQNFTHSTLKKDLISLNAFKKAELTCGILRIELSMPFVWQTGFEALQAEVEQQLKQITGASGVKWVLNYQIATLKRANNHPAVNGVKNIIAVTSGKGGVGKSTTSINLALALQAQGAKVGILDADIYGPSIPHMLGAQDQRPTSPDNRHITPIEAYGIQSNSIGYLMAEDNATIWRGPMASSALSQLLNETWWTDLDYLVIDMPPGTGDIQLTLSQQIPVTGAVVVTTPQDIALLDAIKGIAMFQKVAVPVLGVIENMSVHICQNCGHQEAIFGTGGASKVAEKYNTQLLGQLPLHIRLRQDLDAGTPTVVADPTHEISQAYLALAAKVAAELYWQGTVIPSEIMIREVK | not soluble
MSKKFNGKVCLVTGAGGNIGLATALRLAEEGTAIALLDMNREALEKAEASVREKGVEARSYVCDVTSEEAVIGTVDSVVRDFGKIDFLFNNAGYQGAFAPVQDYPSDDFARVLTINVTGAFHVLKAVSRQMITQNYGRIVNTASMAGVKGPPNMAAYGTSKGAIIALTETAALDLAPYNIRVNAISPGYMGPGFMWERQVELQAKVGSQYFSTDPKVVAQQMIGSVPMRRYGDINEIPGVVAFLLGDDSSFMTGVNLPIAGG | soluble
MSIETFTPTPLLFTPGAANKVKTLIDEEGNPRLKLRVFVTGGGCSGFQYGFTFDEDIADDDTVIERDGVGLVVDPMSFQYLAGSEVDYQEGLEGSRFVIKNPNAATTCGCGQSFSI | not soluble
ADVTITVNGKVVAKPCTVSTTNATVDLGDLYSFSLMSAGAASAWHDVALELTNCPVGTSRVTASFSGAADSTGYYKNQGTAQNIQLELQDDSGNTLNTGATKTVQVDDSSQSAHFPLQVRALTVNGGATQGTIQAVISITYTYS | soluble
